Results: paper doi:10.1101/183855

Molecular target: DEAD-box RNA helicase DDX6 (human (endogenous in 293T)) (UniProt P26196)
Test: proximity ligation

UniProt P26196, sequence (P26196 whole entry): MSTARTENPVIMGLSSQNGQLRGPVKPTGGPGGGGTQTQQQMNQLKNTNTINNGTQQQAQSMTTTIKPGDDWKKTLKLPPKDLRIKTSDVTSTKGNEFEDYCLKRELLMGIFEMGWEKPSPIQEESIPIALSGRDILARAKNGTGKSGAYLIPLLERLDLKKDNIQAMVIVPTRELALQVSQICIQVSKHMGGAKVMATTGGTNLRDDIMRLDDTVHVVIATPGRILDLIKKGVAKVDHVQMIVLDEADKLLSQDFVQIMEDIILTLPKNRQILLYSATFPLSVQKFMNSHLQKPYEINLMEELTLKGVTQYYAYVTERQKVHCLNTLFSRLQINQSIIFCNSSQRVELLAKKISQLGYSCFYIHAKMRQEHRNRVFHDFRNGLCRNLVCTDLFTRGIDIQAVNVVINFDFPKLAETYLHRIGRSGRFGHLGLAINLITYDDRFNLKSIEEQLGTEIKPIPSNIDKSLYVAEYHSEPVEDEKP

## G2A Gag (HIV-1 Gag with glycine 2 changed to alanine, expressed from LAI provirus) (natural protein)
  PLA spots per Z stack image (PLA spots per Z stack image): 56
  PLA spots per cell (PLA spots per cell): 50

## HIV-1 Gag, wild type (expressed from LAI provirus) (natural protein)
  PLA spots per cell (PLA spots per cell): 50
